Numbered stars: 1 amine (or outer) side, 2 acyl side, 3 side chain; on linkers, the order of the positions; unused ones are H or OH. Square brackets hold non-standard residues; d marks the D form. Ends that are not written are not given here. Cys(S-tBut) = S-t-butylthio-L-cysteine, CC(C)(C)SSC[C@H](N[*:1])C(=O)[*:2]; Cys(tBut) = S-t-butyl-L-cysteine, CC(C)(C)SC[C@H](N[*:1])C(=O)[*:2]
B1: Pr24 (peptide)
peptide: FICIPFHTD
modifications: N-terminal R3 = Ursodeoxycholate-(PEG11)-; retroinverted (D-amino acids); C-terminal amide
B2: riHep7ΔDT (peptide)
peptide: [dF][dI][dC][dI][dP][dF][dH]-NH2
modifications: N-terminus assumed
SMILES: CC[C@@H](C)[C@@H](NC(=O)[C@H](N)Cc1ccccc1)C(=O)N[C@H](CS)C(=O)N[C@@H](C(=O)N1CCC[C@@H]1C(=O)N[C@H](Cc1ccccc1)C(=O)N[C@H](Cc1c[nH]cn1)C(N)=O)[C@H](C)CC
B3: Pr28 (peptide)
peptide: FICIPFHTD
modifications: not fully specified; N-terminal R5 = 2(Palmitoyl)-Dap(PEG11)-, Dap = diaminopropionic acid; retroinverted (D-amino acids); C-terminal amide
B4: Hep9C7-SStBut (peptide)
peptide: DTHAPI[Cys(S-tBut)]IF-NH2
modifications: N-terminus assumed
SMILES: CC[C@H](C)[C@H](NC(=O)[C@H](CSSC(C)(C)C)NC(=O)[C@@H](NC(=O)[C@@H]1CCCN1C(=O)[C@H](C)NC(=O)[C@H](Cc1c[nH]cn1)NC(=O)[C@@H](NC(=O)[C@@H](N)CC(=O)O)[C@@H](C)O)[C@@H](C)CC)C(=O)N[C@@H](Cc1ccccc1)C(N)=O
B5: Cyc-3 (peptide)
peptide: HFPICIF
modifications: not fully specified; C-terminal F carries R1 = -CONH2-CH2-CH2-S; disulfide cyclized (double underlining lost)
B6: Pr27 (peptide)
peptide: FICIPFHTD
modifications: N-terminal R4 = Palmitoyl-(PEG11)-; retroinverted (D-amino acids); C-terminal amide
B7: Hep25 (peptide)
peptide: DTHFPICIFCCGCCHRSKCGMCCKT
modifications: disulfide (positions not given here); also: 4 disulfide bonds, pairing not given here
B8: Pr23 (peptide)
peptide: FICIPFHTD
modifications: N-terminal R2 = Chenodeoxycholate-(PEG11)-; retroinverted (D-amino acids); C-terminal amide
B9: Hep9C7-tBut (peptide)
peptide: DTHAPI[Cys(tBut)]IF-NH2
modifications: N-terminus assumed
SMILES: CC[C@H](C)[C@H](NC(=O)[C@H](CSC(C)(C)C)NC(=O)[C@@H](NC(=O)[C@@H]1CCCN1C(=O)[C@H](C)NC(=O)[C@H](Cc1c[nH]cn1)NC(=O)[C@@H](NC(=O)[C@@H](N)CC(=O)O)[C@@H](C)O)[C@@H](C)CC)C(=O)N[C@@H](Cc1ccccc1)C(N)=O

The binders below were run against T1, ferroportin tagged at the C-terminus with green fluorescent protein (ECR293/Fpn-GFP cells) (assay: cell-based or functional assay).
T1 sequence (Q9NP59 whole entry, species assumed, looked up): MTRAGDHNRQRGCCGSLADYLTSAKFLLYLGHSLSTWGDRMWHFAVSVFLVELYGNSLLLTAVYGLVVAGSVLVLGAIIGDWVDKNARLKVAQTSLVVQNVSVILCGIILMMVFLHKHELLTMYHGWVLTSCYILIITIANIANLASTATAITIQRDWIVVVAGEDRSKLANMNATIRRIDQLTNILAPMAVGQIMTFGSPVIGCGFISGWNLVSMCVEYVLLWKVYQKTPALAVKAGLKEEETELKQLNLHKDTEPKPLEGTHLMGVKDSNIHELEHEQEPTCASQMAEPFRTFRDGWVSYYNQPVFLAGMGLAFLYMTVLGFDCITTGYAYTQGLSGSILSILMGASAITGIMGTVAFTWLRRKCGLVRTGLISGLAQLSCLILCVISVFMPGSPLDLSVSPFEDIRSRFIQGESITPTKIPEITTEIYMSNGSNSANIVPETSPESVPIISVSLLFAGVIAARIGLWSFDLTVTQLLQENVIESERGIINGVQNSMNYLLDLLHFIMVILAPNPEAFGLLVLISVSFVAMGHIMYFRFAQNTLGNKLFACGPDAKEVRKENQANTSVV
For HFPIC-NH2 [Hep5 (Hep3-7)], the “EC50 (nM); loss of fluorescence of Fpn-GFP cells, flow cytometry” value (from here on “EC50 (nM); loss”) was over 10000 nM.
In the case of B1, the “EC50 (nM); loss” value is reported as 1000 nM.
In the case of B2, the “EC50 (nM); loss” value is reported as 150 nM.
In the case of B3, the “EC50 (nM); loss” value is reported as 3000 nM.
In the case of FPIC-NH2 [Hep4 (Hep4-7)], the “EC50 (nM); loss” value is reported as over 10000 nM.
B4 was tested, and the “EC50 (nM); loss” value was 700 nM.
DTHFPICI-NH2 [Hep8 (Hep1-8)] was tested, and the “EC50 (nM); loss” value was 2000 nM.
With B5 the “EC50 (nM); loss” value was over 10000 nM.
With B6 the “EC50 (nM); loss” value was 20 nM.
With DTHFPIAIFC-NH2 [Hep10 (Hep1-10 C7A)] the “EC50 (nM); loss” value was 100 nM.
For DTHFPISIF-NH2 [Hep9-C7S], the “EC50 (nM); loss” value was over 10000 nM.
With DTHFPIC-NH2 [Hep7 (Hep1-7)] the “EC50 (nM); loss” value was over 10000 nM.
B7 was tested, and the “EC50 (nM); loss” value was 10 nM.
For DTHFPIAIF-NH2 [Hep9-C7A], the “EC50 (nM); loss” value was over 10000 nM.
HFPICIF-NH2 [Hep7ΔDT (Hep3-9)] was tested, and the “EC50 (nM); loss” value was 700 nM.
With B8 the “EC50 (nM); loss” value was 100 nM.
For HFPICI-NH2 [Hep6 (Hep3-8)], the “EC50 (nM); loss” value was 1000 nM.
For DTHAPICIF-NH2 [Hep9F4A], the “EC50 (nM); loss” value was over 3000 nM.
For B9, the “EC50 (nM); loss” value was over 10000 nM.
FICIPFHTD (retroinverted: all D-amino acids; C-terminal amide) [Pr12] was tested, and the “EC50 (nM); loss” value was 900 nM.

Target: T1, ferroportin tagged at the C-terminus …
Assay: cell-based or functional assay
Remark: another data set of the same source
For B7, the “EC50; loss of fluorescence of Fpn-GFP cells” value was 5 to 15 nM.

Reference: patent US20120040894A1 (REGENTS OF THE UNIVERSITY OF CALIFONIRA, published 2012)
